Assay results taken from IntAct's records for PubMed 17003112.

B1: Nuclear factor NF-kappa-B p105 subunit (Homo sapiens), P19838 (parent)
chain: MAEDDPYLGRPEQMFHLDPSLTHTIFNPEVFQPQMALPTDGPYLQILEQPKQRGFRFRYVCEGPSHGGLPGASSEKNKKSYPQVKICNYVGPAKVIVQLVTNGKNIHLHAHSLVGKHCEDGICTVTAGPKDMVVGFANLGILHVTKKKVFETLEARMTEACIRGYNPGLLVHPDLAYLQAEGGGDRQLGDREKELIRQAALQQTKEMDLSVVRLMFTAFLPDSTGSFTRRLEPVVSDAIYDSKAPNASNLKIVRMDRTAGCVTGGEEIYLLCDKVQKDDIQIRFYEEEENGGVWEGFGDFSPTDVHRQFAIVFKTPKYKDINITKPASVFVQLRRKSDLETSEPKPFLYYPEIKDKEEVQRKRQKLMPNFSDSFGGGSGAGAGGGGMFGSGGGGGGTGSTGPGYSFPHYGFPTYGGITFHPGTTKSNAGMKHGTMDTESKKDPEGCDKSDDKNTVNLFGKVIETTEQDQEPSEATVGNGEVTLTYATGTKEESAGVQDNLFLEKAMQLAKRHANALFDYAVTGDVKMLLAVQRHLTAVQDENGDSVLHLAIIHLHSQLVRDLLEVTSGLISDDIINMRNDLYQTPLHLAVITKQEDVVEDLLRAGADLSLLDRLGNSVLHLAAKEGHDKVLSILLKHKKAALLLDHPNGDGLNAIHLAMMSNSLPCLLLLVAAGADVNAQEQKSGRTALHLAVEHDNISLAGCLLLEGDAHVDSTTYDGTTPLHIAAGRGSTRLAALLKAAGADPLVENFEPLYDLDDSWENAGEDEGVVPGTTPLDMATSWQVFDILNGKPYEPEFTSDDLLAQGDMKQLAEDVKLQLYKLLEIPDPDKNWATLAQKLGLGILNNAFRLSPAPSKTLMDNYEVSGGTVRELVEALRQMGYTEAIEVIQAASSPVKTTSQAHSLPLSPASTRQQIDELRDSDSVCDSGVETSFRKLSFTESLTSGASLLTLNKMPHDYGQEGPLEGKI

Variants of: B1
Conditions: with hif1n_human HIF1AN

Variant | effect of a mutation on the interaction
N678A | disrupting interaction strength
